Data as given in patent US20120207760A1.

Tests used:
Conditions in all cases: remark: other sources report otherwise
[1] = biological target: T1, recombinant homotrimeric HA, A/Japan/305/57 H2N2 (Influenza A virus A/Japan/305/57 (H2N2)); assay: trimeric HA microarray, transfection set 5
[2] = biological target: T2, recombinant homotrimeric HA, A/South Carolina/1/18 H1N1 (Influenza A virus A/South Carolina/1/18 (H1N1)); assay: trimeric HA microarray, transfection set 5
[3] = biological target: T3, recombinant homotrimeric HA, A/swine/Ontario/01911-2/99 H4N6 (Influenza A virus A/swine/Ontario/01911-2/99 (H4N6)); assay: trimeric HA microarray, transfection set 5
[4] = biological target: T4, recombinant homotrimeric HA, A/Solomon Islands/3/06 H1N1 (Influenza A virus A/Solomon Islands/3/06 (H1N1)); assay: trimeric HA microarray, transfection set 5
[5] = biological target: T5, recombinant homotrimeric HA, A/Wisconsin/67/05 H3N2 (Influenza A virus A/Wisconsin/67/05 (H3N2)); assay: trimeric HA microarray, transfection set 5
[6] = biological target: recombinant soluble homotrimeric HA of A/Egypt/3300-NAMRU3/08 - H5N1 (Influenza A virus A/Egypt/3300-NAMRU3/2008 (H5N1)); assay: micro-array; captured IgG, V5-tagged trimeric HA
[7] = biological target: recombinant soluble homotrimeric HA of A/duck/Yangzhou/02/05 (H8N4) (Influenza A virus A/duck/Yangzhou/02/2005 (H8N4)); assay: microarray, BCC supernatant IgG, trimeric HA
[8] = biological target: T1, recombinant homotrimeric HA, …; assay: trimeric HA microarray, transfection set 4
[9] = biological target: T2, recombinant homotrimeric HA, A/South …; assay: trimeric HA microarray, transfection set 4
[10] = biological target: T3, recombinant homotrimeric HA, …; assay: trimeric HA microarray, transfection set 4
[11] = biological target: T6, recombinant homotrimeric HA, A/California/4/09 H1N1 (Influenza A virus A/California/4/09 (H1N1)); assay: trimeric HA microarray, transfection set 4
[12] = biological target: T5, recombinant homotrimeric HA, …; assay: trimeric HA microarray, transfection set 4
[13] = biological target: recombinant homotrimeric HA, A/Vietnam/1203/04 H5N1 (Influenza A virus A/Vietnam/1203/04 (H5N1)); assay: trimeric HA microarray, transfection set 4
[14] = biological target: recombinant soluble homotrimeric HA of A/Hong Kong/1073/99 - H9N2 (Influenza A virus A/Hong Kong/1073/99 (H9N2)); assay: micro-array; captured IgG, V5-tagged trimeric HA
[15] = biological target: T6, recombinant homotrimeric HA, …; assay: trimeric HA microarray, transfection set 5
[16] = biological target: T7, recombinant homotrimeric HA, A/Indonesia/5/05 H5N1 (Influenza A virus A/Indonesia/5/05 (H5N1)); assay: trimeric HA microarray, transfection set 5
[17] = biological target: recombinant soluble homotrimeric HA of A/Anhui/1/05 - H5N1 (Influenza A virus A/Anhui/1/2005 (H5N1)); assay: micro-array; captured IgG, V5-tagged trimeric HA
[18] = biological target: recombinant soluble homotrimeric HA of A/northern shoveler/California/HKWF115/2007 - H6N1 (Influenza A virus A/northern shoveler/California/HKWF115/2007 (H6N1)); assay: micro-array; captured IgG, V5-tagged trimeric HA
[19] = biological target: recombinant soluble homotrimeric HA of A/Hong Kong/156/97 - H5N1 (Influenza A virus A/Hong Kong/156/97 (H5N1)); assay: micro-array; captured IgG, V5-tagged trimeric HA
[20] = biological target: recombinant soluble homotrimeric HA of A/northern shoveler/California/HKWF115/07 (Influenza A virus A/northern shoveler/California/HKWF115/2007); assay: microarray, BCC supernatant IgG, trimeric HA
[21] = biological target: recombinant homotrimeric HA, A/Hong Kong/1073/99 H9N2 (Influenza A virus A/Hong Kong/1073/99 (H9N2)); assay: trimeric HA microarray, transfection set 4
[22] = biological target: recombinant homotrimeric HA, A/Egypt/3300-NAMRU3/08 H5N1 (Influenza A virus A/Egypt/3300-NAMRU3/08 (H5N1)); assay: trimeric HA microarray, transfection set 4
[23] = biological target: recombinant homotrimeric HA, A/northern shoveler/California/HKWF115/07 (Influenza A virus A/northern shoveler/California/HKWF115/2007 (H6N1)); assay: trimeric HA microarray, transfection set 4
[24] = biological target: T4, recombinant homotrimeric HA, A/Solomon …; assay: trimeric HA microarray, transfection set 4
[25] = biological target: recombinant homotrimeric HA, A/common magpie/Hong Kong/5052/07 H5N1 (Influenza A virus A/common magpie/Hong Kong/5052/07 (H5N1)); assay: trimeric HA microarray, transfection set 4
[26] = biological target: recombinant homotrimeric HA, A/chicken/Vietnam/NCVD-016/08 H5N1 (Influenza A virus A/chicken/Vietnam/NCVD-016/08 (H5N1)); assay: trimeric HA microarray, transfection set 4
[27] = biological target: recombinant homotrimeric HA, A/Hong Kong/2108/03 H9N2 (Influenza A virus A/Hong Kong/2108/03 (H9N2)); assay: trimeric HA microarray, transfection set 4
[28] = biological target: T7, recombinant homotrimeric HA, …; assay: trimeric HA microarray, transfection set 4
[29] = biological target: recombinant homotrimeric HA, A/duck/Yangzhou/02/05 H8N4 (Influenza A virus A/duck/Yangzhou/02/2005 (H8N4)); assay: trimeric HA microarray, transfection set 4

B1: TCN-539 (5056_A08) (antibody, V domains shown)
VH: QVQLVESGGGVVQPGRSLRLSCAASEITFITYAMHWVRQAPGKGLEWVALISDDGSNKFYADSVKGRFTISRDNSKNTLYLQMNSLRAEDTAAYYCAREGVYFDSGTYRGYFDYWGQETLVTVSS
VL: EIVLTQSPATLSLSPGERATLSCRASQSVSSYLAWYQQKPGQAPRLLIYDASNRATGIPARFSGSGSGTDFTLTISSLEPEDFAVYYCQQRSHWPPITFGQGTRLEIK
Trimeric HA Binding RLU [1]: 2560 RLU
Trimeric HA Binding RLU [2]: 5330 RLU
Trimeric HA Binding RLU [3]: 6510 RLU
Trimeric HA Binding RLU [4]: 871 RLU
Trimeric HA Binding RLU [5]: 58800 RLU
Trimeric HA Binding: RLU [6]: 24300 RLU
Trimeric HA Binding: RLU [7]: 1490 RLU

B2: TCN-536 (5095_N01) (antibody, V domains shown)
VH: QVQLQQWGAGLLKPSETLSLTCAVYGGSFSVSGYYWSWIRQPPGRGLEWIGEISHGGSTNYNPSLKSRVTISVDTTKNQFSLRLSSVTAADTAVYYCARGTDPDTEVYCRVGNCAAFDYWGQGSLVTVSS
VL: EIILAQSPGTLSLSPGERATLSCRASQFVSTRSLAWYQQRPGQAPRLLIYGASSRATGIPDRFSGSGSGTDFTLTISRLEPEDFAVYYCQHYGYSPRYAFGQGSKVEIK
Trimeric HA Binding RLU [8]: 260 RLU
Trimeric HA Binding RLU [9]: 39 RLU
Trimeric HA Binding RLU [10]: 168 RLU
Trimeric HA Binding RLU [11]: 49 RLU
Trimeric HA Binding RLU [12]: 20600 RLU
Trimeric HA Binding RLU [13]: 182 RLU
Trimeric HA Binding: RLU [14]: 115 RLU

B3: TCN-545 (5082_I15) (antibody, V domains shown)
VH: QVQLQQWGAGLLKPSETLSLSCAVFGGSFSDYYWTWIRQPPGKGLEWIGEIKHSGRTNYNPSLESRVTISVDTSKNQFSLKLSSVTAADTAIYYCARGTDPDTEGYCRSGSCSAFDFWGQGTLVTVSS
VL: EIVLTQSPGTLSLSPGERATLSCRASHFVNYRSLAWYQQTPGQVPRLLIYGASTRATGIPDRFSGSGSGTDFTLTISRLEPEDFAVYFCQQYGGSPRYTFGQGTRLEIK
Trimeric HA Binding RLU [1]: 1360 RLU
Trimeric HA Binding RLU [2]: 900 RLU
Trimeric HA Binding RLU [15]: 818 RLU
Trimeric HA Binding RLU [5]: 32000 RLU
Trimeric HA Binding RLU [16]: 5270 RLU
Trimeric HA Binding: RLU [17]: 4880 RLU
Trimeric HA Binding: RLU [18]: 2320 RLU
Trimeric HA Binding: RLU [19]: 1560 RLU
Trimeric HA Binding: RLU [20]: 1170 RLU

B4: TCN-535 (5246_P19) (antibody, V domains shown)
VH: QVQLVQSGSEVKKPGTSVKVSCTASGSVFTNYGISWVRQAPGQGLEWMGGIIPLFGAAKYAQKFQGRVTITADESTKTVYMELSRLTSKDTAIYFCAKAPRVYEYYFDQWGQGTPVTVSS
VL: EIVLTQSPGTLSLSPGERATLSCRASQSVSSSQLAWYQQKPGQAPRLIIYGASTRATGIPDRFSGSGSGTDFTLTIGRLEPEDFAVFFCQQYSTSPPTFGQGTKVDFK
Trimeric HA Binding RLU [21]: 21200 RLU
Trimeric HA Binding RLU [22]: 25300 RLU
Trimeric HA Binding RLU [8]: 21500 RLU
Trimeric HA Binding RLU [23]: 18100 RLU
Trimeric HA Binding RLU [9]: 22400 RLU
Trimeric HA Binding RLU [24]: 836 RLU
Trimeric HA Binding RLU [11]: 25200 RLU
Trimeric HA Binding RLU [25]: 477 RLU
Trimeric HA Binding RLU [26]: 20900 RLU
Trimeric HA Binding RLU [27]: 18 RLU
Trimeric HA Binding RLU [12]: 4450 RLU
Trimeric HA Binding RLU [13]: 25200 RLU
Trimeric HA Binding RLU [28]: 18200 RLU
Trimeric HA Binding RLU [29]: 428 RLU
